Data as given in patent US9090686B2, “Antibodies for the treatment of HIV” (Pierre Fabre Medicament, priority 2009, dated 2015).
Substitutions are numbered along the chain they refer to.

B1: 515H7: murine anti-CXCR4 monoclonal antibody; light chain variable domain SEQ ID No. 7, heavy chain variable domain SEQ ID No. 8 (antibody, listed as Mus musculus, V domains shown)
VH: EVNLVESGGGLVQPGGSLRLSCATSGFTFTDNYMSWVRQPPGKALEWLGFIRNKANGYTTDYSASVRGRFTISRDNSQSILYLQMNALRAEDSATYYCARDVGSNYFDYWGQGTTLTVSS
VL: DIVMSQSPSSLAVSAGEKVTMSCKSSQSLFNSRTRKNYLAWYQQKPGQSPKLLIYWASARDSGVPARFTGSGSETYFTLTISRVQAEDLAVYYCMQSFNLRTFGGGTKLEIK
B2: c515H7: chimeric antibody 515H7: murine variable domains fused to human Ckappa and IgG1/IgG2/IgG4 constant domains; isotype tested not stated (antibody, V domains shown)
VH: B1 VH
VL: B1 VL
B3: 301aE5: murine anti-CXCR4 monoclonal antibody; light chain variable domain SEQ ID No. 34, heavy chain variable domain SEQ ID No. 35 (antibody, listed as Mus musculus, V domains shown)
VH: QVQLKESGPGLVAPSQSLSITCTVSGFSLTDYGVYWVRQPPGKGLEWLGMIWGDGTTDYNSALKSRLSISKDNSKSQVFLKMNTLQTDDTARYYCARGRQFGFDYWGQGTTLTVSS
VL: B1 VL with S22R, Y55F, A59I, D61E, A66D, E74G, Y76D, R83S, M95K, F98Y

Molecular target: T1, CXCR4 homodimer (Homo sapiens, UniProt P61073)
T1 construct: expressed in transfected cells; host or cells: HEK293, transient transfection
T1 sequence (P61073 whole entry): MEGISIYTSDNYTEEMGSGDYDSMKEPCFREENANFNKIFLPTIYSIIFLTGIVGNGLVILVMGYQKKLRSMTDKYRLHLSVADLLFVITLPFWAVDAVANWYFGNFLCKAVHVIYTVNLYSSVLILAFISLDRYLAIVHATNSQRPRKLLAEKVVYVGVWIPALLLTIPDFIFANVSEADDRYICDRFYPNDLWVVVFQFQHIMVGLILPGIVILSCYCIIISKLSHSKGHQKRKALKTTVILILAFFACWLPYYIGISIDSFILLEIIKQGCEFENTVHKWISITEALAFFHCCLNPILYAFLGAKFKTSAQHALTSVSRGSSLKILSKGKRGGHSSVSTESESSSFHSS
T1 sequence (P61073 whole entry): as above
Experiment: BRET on HEK293 cells expressing CXCR4/Rluc+CXCR4/YFP
Assay type: cell-based
Details: without SDF-1
Source text: This functional assay allows to evaluate the conformational changes induced upon SDF-1 and/or 515H7 Mab binding to CXCR4 receptor at the level of CXCR4 homodimer.
(§1) Expression vectors for the investigated interaction partners were constructed as fusion proteins with the corresponding dye (Renilla reniformis luciferase, Rluc and Yellow fluorescent protein, YFP) by applying conventional molecular biology techniques. Two days prior performing BRET experiments, HEK293 cells were transiently transfected with expression vectors coding for the corresponding BRET partners: [CXCR4/Rluc+CXCR4/YFP] to study CXCR4 homodimerization. The day after, cells were distributed in poly-lysine pre-coated white 96 MW plates in complete culture medium [DMEM supplemented with 10% FBS]. Cells were first cultivated at 37° C. with CO2 5% in order to allow cell attachment to the plate. Cells were then starved with 200 μl DMEM/well overnight Immediately prior to the BRET experiment, DMEM was removed and cells were quickly washed with PBS. Cells were then incubated in PBS in the presence or absence of antibody, 10 min at 37° C. prior to the addition of coelenterazine H 5 μM with or without SDF-1 300 nM in a final volume of 50 μl. After incubation for further 10 minutes at 37° C., light-emission acquisition at 485 nm and 530 nm was initiated using the Mithras LB940 multilabel reader (Berthold) (1 s/wavelength/well repeated 15 times at room temperature).
(§2) Calculation of BRET ratio was performed as previously described (Angers et al., 2000): [(emission530 nm)−(emission485 nm)×Cf]/(emission485 nm), where Cf=(emission530 nm)/(emission485 nm) for cells expressing the Rluc fusion protein alone under the same experimental conditions. […] For sake of readability, results are expressed in mi11iBRET units (mBU); mBU corresponds to the BRET ratio multiplied by 1000.
This functional assay allows to evaluate the conformational changes induced upon SDF-1 and/or c515H7 Mab binding to CXCR4 receptor at the level of CXCR4 homodimer.
as §1, with “Cells were then incubated in PBS in the presence or absence of antibody, 10 min at 37° C. prior to the addition of coelenterazine H 5 μM with or without SDF-1 300 nM in a final volume of 50 μl.” left out
as §2, with “milliBRET” for “mi11iBRET”, “1000. […]” for “1000.”

Row | Molecule | modulation of CXCR4/CXCR4 spatial proximity by the Mab itself
1 | B1 | able to modulate by themselves CXCR4/CXCR4 spatial proximity
2 | B2 | able to modulate by itself CXCR4/CXCR4 spatial proximity
3 | B3 | able to modulate by themselves CXCR4/CXCR4 spatial proximity

Molecular target: human CXCR4 (Homo sapiens, UniProt P61073)
Sequence (P61073 whole entry): as above
Experiment: SDF-1-induced calcium release in CHO-CXCR4 cells
Assay type: cell-based
Parameters: expressed in transfected cells
Details: Mab 133 nM, SDF-1 100 nM
Source text: This functional assay was designed to monitor CXCR4 receptor signaling via stimulation of the phospholipase C pathway, inducing calcium liberation from intracellular stores from the endoplasmic reticulum.
CHO-K1 cells, stably and constitutively expressing human CXCR4 receptor were obtained upon transfection of naïve CHO-K1 cells (ATCC CCL-61) with a mammalian expression vector carrying the whole coding sequence of human CXCR4 receptor (RefSeq NM_003467). Cells were propagated in complete culture medium [DMEM-Ham's F12 supplemented with 5% fetal calf serum (FCS) and 500 μg/ml of geneticin]. Cells were plated in black 96MW plates at a density of 100,000 cells/well in appropriate culture medium. Cells were starved overnight before conducting the experiments. Cells are loaded with the fluorescent calcium dye (Fluo-4 No Wash, Invitrogen US) in loading buffer [HBSS 1×, HEPES 20 mM, Probenicid acid 25 mM] for 30 min. at 37° C. followed by 30 min. at 25° C. Stimulation by SDF-1 was performed by direct injection into each well. For antagonism experiments, 10 μl of Mab solution are added directly into the loading buffer at least 10 min. before SDF-1. Kinetic fluorescence measurements are performed on a multi-mode fluorescence microplate reader Mithras LB940 (Berthold) using the following settings: excitation at 485 nm, emission at 535 nm, excitation energy at 10000 arbitrary units. Fluorescence in each well is recorded during 0.1 second every second and for a time period of 20 sec. prior SDF-1 injection (basal signal). Then 20 μl of SDF-1 are injected and data recording follows for a time period of 2 min. Each experimental condition is performed in duplicate. Values for each well are first corrected by subtracting the basal fluorescence and the fluorescence emitted by a control well without cells. Relative data are expressed as a percentage of the maximal stimulation obtained by SDF-1 (100 nM).

Row | Molecule | inhibition of the SDF-1-induced calcium signal (in words)
4 | B1 | strong inhibition
5 | B2 | strong inhibition
6 | B3 | partial inhibition
